Results taken from patent US20180326058A1 (Chugai, published 2018).

T1: mouse CD3 (mouse)
T1 chain: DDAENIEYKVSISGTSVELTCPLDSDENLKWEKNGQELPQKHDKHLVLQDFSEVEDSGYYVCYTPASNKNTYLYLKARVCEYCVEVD

T2: mouse FcgRIV (mouse, UniProt A0A0B4J1G0 21-203)
T2 construct: Used as the soluble analyte in Biacore; also called mFcgRIV
T2 sequence: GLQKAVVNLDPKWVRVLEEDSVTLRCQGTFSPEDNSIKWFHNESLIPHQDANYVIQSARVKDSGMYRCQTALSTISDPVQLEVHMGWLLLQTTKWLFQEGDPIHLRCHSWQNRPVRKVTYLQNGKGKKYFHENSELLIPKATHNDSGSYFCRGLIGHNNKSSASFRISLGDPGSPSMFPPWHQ

T3: mouse FcgRI (mouse, UniProt P26151 25-297)
T3 construct: Used as the soluble analyte in Biacore; also called mFcgRI
T3 sequence (looked up): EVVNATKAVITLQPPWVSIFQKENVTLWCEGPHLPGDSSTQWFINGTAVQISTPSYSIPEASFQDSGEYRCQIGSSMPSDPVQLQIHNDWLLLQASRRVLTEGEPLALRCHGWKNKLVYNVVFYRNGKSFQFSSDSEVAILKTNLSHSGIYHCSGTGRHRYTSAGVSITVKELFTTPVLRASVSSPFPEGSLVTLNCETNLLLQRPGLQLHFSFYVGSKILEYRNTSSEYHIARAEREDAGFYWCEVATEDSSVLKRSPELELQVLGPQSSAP

T4: mouse FcgRIII (mouse, UniProt P08508 31-215)
T4 construct: Used as the soluble analyte in Biacore; also called mFcgRIII
T4 sequence (looked up): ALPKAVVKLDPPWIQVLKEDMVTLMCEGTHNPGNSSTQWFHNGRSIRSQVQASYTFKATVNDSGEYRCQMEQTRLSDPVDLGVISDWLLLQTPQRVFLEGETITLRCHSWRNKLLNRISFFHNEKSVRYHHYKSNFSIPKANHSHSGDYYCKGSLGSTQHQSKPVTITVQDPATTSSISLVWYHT

T5: mouse FcgRII (mouse, UniProt P08101 30-210)
T5 construct: Used as the soluble analyte in Biacore; also called mFcgRII
T5 sequence (looked up): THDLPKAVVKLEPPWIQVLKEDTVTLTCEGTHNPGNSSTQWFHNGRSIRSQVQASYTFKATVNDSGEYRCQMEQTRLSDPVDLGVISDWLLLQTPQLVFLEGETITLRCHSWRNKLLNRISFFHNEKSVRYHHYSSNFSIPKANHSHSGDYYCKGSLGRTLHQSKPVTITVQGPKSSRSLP


What was measured:
mouse CD3 = target: T1, mouse CD3; assay: SPR Biacore T200, bispecific antibody captured on Protein A/G, antigen as analyte, 37 C
Description: (§1) Anti-mouse CTLA4/anti-mouse CD3 bispecific antibodies (hUH02UL01/2C11-F760) purified and prepared by the method of Reference Example 3-1 were analyzed for their antigen-antibody reactions with each antigen (mCTLA4 and mCD3) using Biacore T200 (GE Healthcare). The running buffer used was HBS-EP+ at pH7.4, and measurements were taken at 37° C. Protein A/G was immobilized onto a Sensor Chip CM4 by amine coupling. hUH02UL01/2C11-F760 was captured onto the sensor chip, and then the antigen (mouse CTLA4 or mouse CD3) was allowed to interact as an analyte (for 120 seconds for mouse CTLA4 and for 90 seconds for mouse CD3), and changes in the bound amount were observed. The running buffer was used for dilution of hUH02UL01/2C11-F760. The measurement results were analyzed by curve fitting using the Biacore T200 Evaluation Software (GE Healthcare) to calculate the association rate constants ka (1/Ms) and the dissociation rate constants kd (l/s). From those values, the dissociation constants KD (M) were determined.

mouse CTLA4 = target: T6, mouse CTLA4 (mouse, UniProt P09793 36-161, limits assumed); assay: as above
T6 construct: Soluble antigen used as the analyte in Biacore; also called mCTLA4
Description: as §1

mouse FcgRIV = target: T2, mouse FcgRIV; assay: SPR Biacore T200, antibody captured on Protein A/G, FcgR as analyte, 25 C
Description: (§2) Anti-mouse CTLA4 antibody hUH02hUL01-mFa55 and control antibody hUH02hUL01-mIgG2a (the heavy chain variable region UH02 is SEQ ID NO: 28, the light chain variable region UL01 is SEQ ID NO: 29, the heavy chain constant region mIgG2a is SEQ ID NO: 32, and the light chain constant region mk1 is SEQ ID NO: 31) purified and prepared by the method of Reference Example 2-1 were analyzed for their antigen-antibody reactions with various mouse FcgRs (mFcgRI, II, III, and IV) using Biacore T200 (GE Healthcare). The running buffer used was 20 mmol/L ACES, 150 mmol/L NaCl, 0.05% (w/v) Tween20 at pH7.4, and measurements were taken at 25° C. Protein A/G was immobilized onto a Sensor Chip CM7 by amine coupling. hUH02hUL01-mFa55 was captured onto the sensorchip, and then FcgR was allowed to interact as an analyte for 120 seconds, and change in the bound amount was observed. The running buffer was used for dilution of hUH02hUL01-mFa55. The measurement results were analyzed by curve fitting using the Biacore T200 Evaluation Software (GE Healthcare) to calculate the association rate constants ka (1/Ms) and the dissociation rate constants kd (l/s). From those values, the dissociation constants KD (M) were determined.

mouse FcgRI = target: T3, mouse FcgRI; assay: as above
Description: as §2

mouse FcgRIII = target: T4, mouse FcgRIII; assay: as above
Description: as §2

mouse FcgRII = target: T5, mouse FcgRII; assay: as above
Description: as §2

Binder	Kd (mouse CD3)	koff (mouse CD3)	kon (mouse CD3)	Kd (mouse CTLA4)	koff (mouse CTLA4)	kon (mouse CTLA4)	Kd (mouse FcgRIV)	koff (mouse FcgRIV)	kon (mouse FcgRIV)	Kd (mouse FcgRI)	koff (mouse FcgRI)	kon (mouse FcgRI)	Kd (mouse FcgRIII)	koff (mouse FcgRIII)	kon (mouse FcgRIII)	Kd (mouse FcgRII)	koff (mouse FcgRII)	kon (mouse FcgRII)
anti-mouse CTLA4/anti-mouse CD3 bispecific antibody (hUH02UL01/2C11-F760) (bispecific antibody, human IgG1, kappa, N297A, also called T cell-redirecting antibody) heavy 1: QVQLQESGPGLVKPSETLSLTCTVSGYSISSGYGWNWIRQPPGKGLEWIGFIYYEGSTYYNPSIKSRISITRDTSKNQFFLQVNSVTTEDTATYYCARQTGYFDYWGQGTLVTVSSASTKGPSVFPLAPSSKSTSGGTAALGCLVKDYFPEPVTVSWNSGALTSGVHTFPAVLQSSGLYSLSSVVTVPSSSLGTQTYICNVNHKPSNTKVDKKVEPKSCDKTHTCPPCPAPELRGGPKVFLFPPKPKDTLMISRTPEVTCVVVDVSHEDPEVKFNWYVDGVEVHNAKTKPREEQYASTYRVVSVLTVLHQDWLNGKEYKCKVSNKALPAPIEKTISKAKGQPREPQVYTLPPSRDELTKNQVSLTCLVKGFYPSDIAVEWESNGQPENNYKTTPPYLDSDGSFFLYSKLTVDKSRWQQGNVFSCSVMHEALHNHYTQESLSLSP light 1: not shown heavy 2: EVQLVESGGGLVQPGKSLKLSCEASGFTFSGYGMHWVRQAPGRGLESVAYITSSSINIKYADAVKGRFTVSRDNAKNLLFLQMNILKSEDTAMYYCARFDWDKNYWGQGTMVTVSSASTKGPSVFPLAPSSKSTSGGTAALGCLVKDYFPEPVTVSWNSGALTSGVHTFPAVLQSSGLYSLSSVVTVPSSSLGTQTYICNVNHKPSNTKVDKKVEPKSCDKTHTCPPCPAPELRGGPKVFLFPPKPKDTLMISRTPEVTCVVVDVSHEDPEVKFNWYVDGVEVHNAKTKPREEQYASTYRVVSVLTVLHQDWLNGKEYKCKVSNKALPAPIEKTISKAKGQPREPQVYTLPPSRKELTKNQVSLTCLVKGFYPSDIAVEWESNGQPENNYKTTPPYLDSDGSFFLYSKLTVDKSRWQQGNVFSCSVMHEALHNHYTQKSLSLSP light 2: DIQMTQSPSSLPASLGDRVTINCQASQDISNYLNWYQQKPGKAPKLLIYYTNKLADGVPSRFSGSGSGRDSSFTISSLESEDIGSYYCQQYYNYPWTFGPGTKLEIKRTVAAPSVFIFPPSDEQLKSGTASVVCLLNNFYPREAKVQWKVDNALQSGNSQESVTEQDSKDSTYSLSSTLTLSKADYEKHKVYACEVTHQGLSSPVTKSFNRGEC	1160 nM	0.0712 s⁻¹	61600 M⁻¹ s⁻¹	1.23 nM	0.00053 s⁻¹	430000 M⁻¹ s⁻¹												
control antibody hUH02hUL01-mIgG2a (antibody, Same variable regions as hUH02hUL01-mFa55, with an unmodified mouse IgG2a constant region) heavy: QVQLQESGPGLVKPSETLSLTCTVSGYSISSGYGWNWIRQPPGKGLEWIGFIYYEGSTYYNPSIKSRISITRDTSKNQFFLQVNSVTTEDTATYYCARQTGYFDYWGQGTLVTVSSAKTTAPSVYPLAPVCGDTTGSSVTLGCLVKGYFPEPVTLTWNSGSLSSGVHTFPAVLQSDLYTLSSSVTVTSSTWPSQSITCNVAHPASSTKVDKKIEPRGPTIKPCPPCKCPAPNLLGGPSVFIFPPKIKDVLMISLSPIVTCVVVDVSEDDPDVQISWFVNNVEVHTAQTQTHREDYNSTLRVVSALPIQHQDWMSGKEFKCKVNNKDLPAPIERTISKPKGSVRAPQVYVLPPPEEEMTKKQVTLTCMVTDFMPEDIYVEWTNNGKTELNYKNTEPVLDSDGSYFMYSKLRVEKKNWVERNSYSCSVVHEGLHNHHTTKSFSRTPGK light: DIVMTQSPDSLAVSLGERATINCKSSQSLFNSNAKTNYLNWYQQKPGQPPKLLIYYASTRHTGVPDRFSGSGSGTDFTLTISSLQAEDVAVYYCQQWYDYPYTFGAGTKVEIKRADAAPTVSIFPPSSEQLTSGGASVVCFLNNFYPKDINVKWKIDGSERQNGVLNSWTDQDSKDSTYSMSSTLTLTKDEYERHNSYTCEATHKTSTSPIVKSFNRNEC							13 nM	0.016 s⁻¹	1.2e+06 M⁻¹ s⁻¹	6.1 nM	0.0047 s⁻¹	780000 M⁻¹ s⁻¹	250 nM	0.51 s⁻¹	2e+06 M⁻¹ s⁻¹	780 nM	1.1 s⁻¹	1.3e+06 M⁻¹ s⁻¹
anti-mouse CTLA4 antibody hUH02hUL01-mFa55 (antibody, mouse IgG2a, kappa, Mouse IgG2a/kappa format; also called hUH02UL01-mFa55; ADCC-enhanced antibody) heavy: QVQLQESGPGLVKPSETLSLTCTVSGYSISSGYGWNWIRQPPGKGLEWIGFIYYEGSTYYNPSIKSRISITRDTSKNQFFLQVNSVTTEDTATYYCARQTGYFDYWGQGTLVTVSSAKTTAPSVYPLAPVCGDTTGSSVTLGCLVKGYFPEPVTLTWNSGSLSSGVHTFPAVLQSDLYTLSSSVTVTSSTWPSQSITCNVAHPASSTKVDKKIEPRGPTIKPCPPCKCPAPNLLGGPDVFIFPPKIKDVLMISLSPIVTCVVVDVSEDDPDVQISWFVNNVEVHTAQTQTHREDYNSTLRVVSALPIQHQDWMSGKEFKCKVNNKDLPAPIERTISKPKGSVRAPQVYVLPPPEEEMTKKQVTLTCMVTDFMPEDIYVEWTNNGKTELNYKNTEPVLDSDGSYFMYSKLRVEKKNWVERNSYSCSVVHEGLHNHHTTKSFSRTPGK light: DIVMTQSPDSLAVSLGERATINCKSSQSLFNSNAKTNYLNWYQQKPGQPPKLLIYYASTRHTGVPDRFSGSGSGTDFTLTISSLQAEDVAVYYCQQWYDYPYTFGAGTKVEIKRADAAPTVSIFPPSSEQLTSGGASVVCFLNNFYPKDINVKWKIDGSERQNGVLNSWTDQDSKDSTYSMSSTLTLTKDEYERHNSYTCEATHKTSTSPIVKSFNRNEC							1.9 nM	0.0028 s⁻¹	1.5e+06 M⁻¹ s⁻¹	2.5 nM	0.0031 s⁻¹	1.2e+06 M⁻¹ s⁻¹	260 nM	0.62 s⁻¹	2.4e+06 M⁻¹ s⁻¹	370 nM	0.76 s⁻¹	2.1e+06 M⁻¹ s⁻¹
